According to the supplement of paper PMC9233669:
This sample holds only a part of the variants without activity.

How the values were obtained:
biotinyl-Phe-oxazolone = test: self-aminoacylation, catalytic enhancement (BFO) (fold over background); higher = more active; k-Seq, kA / k0A0; sequences stand for … in GGGAAUGGAUCCACAUCUACGAAUUC…UUCACUGCAGACUUGACGAAGCUG
Method in brief: (§1)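 Each biotinyl-aminoacyl-oxazolone, at 2–1250 μM, was incubated with mutagenized RNA pools (0.43 μM) carrying a 21-nt variable region. The 50 μL reactions contained HEPES/NaCl/KCl/MgCl2/CaCl2 buffer with 5% acetonitrile at pH 6.9–7.0 and ran for 90 minutes at room temperature. After streptavidin capture, RNA was measured by qPCR in triplicate and by Illumina sequencing, and catalytic enhancement was calculated as median kA over the uncatalyzed rate from a pseudo-first-order fit of per-sequence fraction reacted.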

biotinyl-Ile-oxazolone = test: self-aminoacylation, catalytic enhancement (BIO) (fold over background); higher = more active; k-Seq, kA / k0A0; sequences stand for … in GGGAAUGGAUCCACAUCUACGAAUUC…UUCACUGCAGACUUGACGAAGCUG
Method in brief: as §1

biotinyl-Met-oxazolone = test: self-aminoacylation, catalytic enhancement (BMO) (fold over background); higher = more active; k-Seq, kA / k0A0; sequences stand for … in GGGAAUGGAUCCACAUCUACGAAUUC…UUCACUGCAGACUUGACGAAGCUG
Method in brief: as §1

biotinyl-Val-oxazolone = test: self-aminoacylation, catalytic enhancement (BVO) (fold over background); higher = more active; k-Seq, kA / k0A0; sequences stand for … in GGGAAUGGAUCCACAUCUACGAAUUC…UUCACUGCAGACUUGACGAAGCUG
Method in brief: as §1

biotinyl-Leu-oxazolone = test: self-aminoacylation, catalytic enhancement (BLO) (fold over background); higher = more active; k-Seq, kA / k0A0; sequences stand for … in GGGAAUGGAUCCACAUCUACGAAUUC…UUCACUGCAGACUUGACGAAGCUG
Method in brief: as §1

biotinyl-Trp-oxazolone = test: self-aminoacylation, catalytic enhancement (BWO) (fold over background); higher = more active; k-Seq, kA / k0A0; sequences stand for … in GGGAAUGGAUCCACAUCUACGAAUUC…UUCACUGCAGACUUGACGAAGCUG
Method in brief: as §1

| Sequence | self-aminoacylation (biotinyl-Phe-oxazolone) | self-aminoacylation (biotinyl-Ile-oxazolone) | self-aminoacylation (biotinyl-Met-oxazolone) | self-aminoacylation (biotinyl-Val-oxazolone) | self-aminoacylation (biotinyl-Leu-oxazolone) | self-aminoacylation (biotinyl-Trp-oxazolone) |
| --- | --- | --- | --- | --- | --- | --- |
| AUUACCCUGGUCAAUGAGUGA [Fam2.1 aminoacylation ribozyme variant] | 30.9 | 3.46 | 7.16 | 3.7 | 6.7 | 8.83 |
| CUAUUUCAAGCAAUCGGUCUG [Fam1A.1 aminoacylation ribozyme variant] | 1.61 | 0.881 | 0.741 | 0.795 | 0.996 | 0.883 |
| CCACACUUCAACCAAACGGUC [Fam1B.1 aminoacylation ribozyme variant] | 0.797 | 0.872 | 0.628 | 0.846 | 0.729 | 0.727 |
| AUUCACCUAGGUCACCGGUUG [Fam2.2 aminoacylation ribozyme variant] | 7.82 | 1.92 | 1.62 | 1.7 | 1.55 | 1.29 |
| AUUCACCUAGGUGAUCGGGCG [Fam2.2 aminoacylation ribozyme variant] | 12.5 | 3.28 | 3.9 | 3.62 | 4.11 | 3.84 |
| GGGUUUGCUAAUAGUCGCAAG [Fam3.1 aminoacylation ribozyme variant] | 12.3 | 2.32 | 1.89 | 2.01 | 2.45 | 6.82 |
| GUUACCUUGGUCAUCGAGUGA [Fam2.1 aminoacylation ribozyme variant] | 21.1 | 4.39 | 7.16 | 4.21 | 7.14 | 9.03 |
| AUUACGCUGGUCAUCGAGUGU [Fam2.1 aminoacylation ribozyme variant] | 2.57 | 2.34 | 2.96 | 2.64 | 2.9 | 3.22 |
| CCACACUUCAAACAAUCGGUG [Fam1B.1 aminoacylation ribozyme variant] | 4.88 | 2.96 | 4.77 | 3.01 | 6.19 | 4.19 |
| AAGCUUGCUAAUAGACGCAAG [Fam3.1 aminoacylation ribozyme variant] | 1.7 | 0.821 | 1.51 | 0.9 | 0.763 | 0.574 |
| AUUCACCUAGGUCAUGGGGAG [Fam2.2 aminoacylation ribozyme variant] | 0.544 | 1.03 | 0.889 | 0.979 | 0.853 | 1.56 |
| AUUCACCCAGGUCAUCAGGUG [Fam2.2 aminoacylation ribozyme variant] | 0.632 | 0.991 | 1 | 1.01 | 1.08 | 0.804 |
| CUACUACAAUCAAUCGGUCUG [Fam1A.1 aminoacylation ribozyme variant] | 0.981 | 0.767 | 0.616 | 0.682 | 0.699 | 0.669 |
| CCACACUUCAAGCAAUCCGUU [Fam1B.1 aminoacylation ribozyme variant] | 0.872 | 1.4 | 1.31 | 1.27 | 1.27 | 1.45 |
| CCACUUCAAACAAUCUGUCUG [Fam1A.1 aminoacylation ribozyme variant] | 2.99 | 0.723 | 0.511 | 0.641 | 0.642 | 1.78 |
| AUUCACCUAGGACAUCGGCUG [Fam2.2 aminoacylation ribozyme variant] | 10.9 | 1.7 | 2.02 | 1.79 | 2.32 | 2.64 |
| CUUCACCUAGGGCAUCGGGUG [Fam2.2 aminoacylation ribozyme variant] | 17.5 | 2.75 | 2.91 | 3.04 | 3.99 | 4.25 |
| AAGUUUGCUAAUAGUCGCUGG [Fam3.1 aminoacylation ribozyme variant] | 1.72 | 1.21 | 1.67 | 1.25 | 0.78 | 1.18 |
| AAUUUUGCUAAUAUUCGCAAG [Fam3.1 aminoacylation ribozyme variant] | 1.5 | 1.92 | 1.55 | 1.5 | 1.57 | 2.15 |
| AUUCACCUAGGUCACCGGGUA [Fam2.2 aminoacylation ribozyme variant] | 14 | 2.6 | 2.79 | 2.46 | 3.2 | 3.11 |
| AUUACCCUGGUCAUGGAGCGA [Fam2.1 aminoacylation ribozyme variant] | 3.2 | 1.27 | 1.59 | 1.29 | 1.72 | 1.32 |
| AUUACCCUGCUCAUCGGGUGA [Fam2.1 aminoacylation ribozyme variant] | 33.5 | 2.63 | 4.81 | 3.34 | 5.17 | 6 |
| AUUCACCUUGGUCAUCGGCUG [Fam2.2 aminoacylation ribozyme variant] | 7.58 | 1.64 | 1.52 | 2.19 | 1.7 | 1.66 |
| CCUCACCUAGGUCAUCGGGUG [Fam2.2 aminoacylation ribozyme variant] | 16.2 | 3.22 | 3.92 | 5.35 | 4.79 | 5.46 |
| CCCCACUUCAAGCAUUCGGUC [Fam1B.1 aminoacylation ribozyme variant] | 10.9 | 2.65 | 2.61 | 3.06 | 2.48 | 5.46 |
| CCACACUUCAAGAAAUCGUUC [Fam1B.1 aminoacylation ribozyme variant] | 0.735 | 0.472 | 0.482 | 0.602 | 0.529 | 0.399 |

| Sequence | self-aminoacylation (biotinyl-Phe-oxazolone) | self-aminoacylation (biotinyl-Ile-oxazolone) | self-aminoacylation (biotinyl-Met-oxazolone) | self-aminoacylation (biotinyl-Val-oxazolone) | self-aminoacylation (biotinyl-Leu-oxazolone) | self-aminoacylation (biotinyl-Trp-oxazolone) |
| --- | --- | --- | --- | --- | --- | --- |
| CUACUCCAAACGAUCGGUCUG [Fam1A.1 aminoacylation ribozyme variant] | 0.979 | 0.854 | 0.643 | 0.812 | 0.91 | 0.445 |
| AUUACGCUGGUCAUCGCGUGA [Fam2.1 aminoacylation ribozyme variant] | 134 | 7.32 | 12.2 | 9.87 | 11.7 | 15.4 |
| CUUCUUCAAACAAUCGGACUG [Fam1A.1 aminoacylation ribozyme variant] | 7.56 | 0.822 | 0.652 | 0.677 | 0.698 | 3.43 |
| AUUACCCAGGUCAACGAGUGA [Fam2.1 aminoacylation ribozyme variant] | 24.9 | 3.57 | 7.03 | 3.76 | 6.2 | 7.71 |
| AUUCACCUAGCUCAGCGGGUG [Fam2.2 aminoacylation ribozyme variant] | 10.6 | 2.08 | 2.68 | 2.09 | 3.49 | 2.83 |
| AUUACCCUCUUCAUCGAGUGA [Fam2.1 aminoacylation ribozyme variant] | 1.52 | 1.02 | 1.33 | 1.11 | 1.41 | 0.851 |
| AUUCACCUACGUUAUCGGGUG [Fam2.2 aminoacylation ribozyme variant] | 63.3 | 3.98 | 7.55 | 4.17 | 9.22 | 6.51 |
| AAGUUUGGUAAUAGACGCAAG [Fam3.1 aminoacylation ribozyme variant] | 0.706 | 0.574 | 0.453 | 0.487 | 0.442 | 0.575 |
| CCAAACUUCAUGCAAUCGGUC [Fam1B.1 aminoacylation ribozyme variant] | 0.558 | 0.959 | 0.703 | 1 | 0.864 | 0.611 |
| AAGUUCGCUAUUAGUCGCAAG [Fam3.1 aminoacylation ribozyme variant] | 2.21 | 2 | 1.82 | 1.5 | 2.14 | 1.44 |
| AAGUUUGCUAAUACUAGCAAG [Fam3.1 aminoacylation ribozyme variant] | 0.734 | 0.59 | 0.798 | 0.567 | 0.722 | 0.476 |
| AAGUCUGCUAAUAGUCGCAUG [Fam3.1 aminoacylation ribozyme variant] | 2.06 | 0.998 | 1.72 | 1.27 | 1.89 | 1.91 |
| AUUGACCUAGGUCCUCGGGUG [Fam2.2 aminoacylation ribozyme variant] | 29 | 4.32 | 4.64 | 3.24 | 5.76 | 5.43 |
| AUUCACCUAGCUCAUCGCGUG [Fam2.2 aminoacylation ribozyme variant] | 34.7 | 2.98 | 4.26 | 3.28 | 6.1 | 5.18 |
| CUACGUCAAACACUCGGUCUG [Fam1A.1 aminoacylation ribozyme variant] | 10.9 | 1.85 | 1.6 | 2.18 | 1.83 | 2.65 |
| AUUCACCUAGGUCACCGGCUG [Fam2.2 aminoacylation ribozyme variant] | 12.9 | 2.51 | 2.27 | 2.36 | 3.16 | 2.12 |
| CUACUUCAAGCAAUCGGCCUG [Fam1A.1 aminoacylation ribozyme variant] | 18.9 | 1.85 | 1.74 | 1.6 | 2.44 | 16.4 |
| CAGUUUGCUAAUCGUCGCAAG [Fam3.1 aminoacylation ribozyme variant] | 0.994 | 0.971 | 0.993 | 1.07 | 1.32 | 1.05 |
| CCACACUUCAACCAAUGGGUC [Fam1B.1 aminoacylation ribozyme variant] | 0.603 | 0.685 | 0.499 | 0.759 | 0.593 | 0.377 |
| ACUCACUUAGGUCAUCGGGUG [Fam2.2 aminoacylation ribozyme variant] | 49.6 | 4.73 | 5.78 | 5.12 | 7.98 | 7.25 |
| AAGUUUGCUACUCGUCGCAAG [Fam3.1 aminoacylation ribozyme variant] | 0.598 | 0.823 | 0.922 | 1.04 | 0.958 | 1.31 |
| AAGUUUGCGAAUUGUCGCAAG [Fam3.1 aminoacylation ribozyme variant] | 6.83 | 1.77 | 2.15 | 2.23 | 1.94 | 2.19 |
| AUUCACCUAGGUCGUCGGGGG [Fam2.2 aminoacylation ribozyme variant] | 8.18 | 3.11 | 3.07 | 2.9 | 3.38 | 3.53 |
| AUUCACCUAGGUCAUCGGUUU [Fam2.2 aminoacylation ribozyme variant] | 1.09 | 1.19 | 1.19 | 1.41 | 1.28 | 0.984 |
| CUACUUCAAACAAUCGGUUCG [Fam1A.1 aminoacylation ribozyme variant] | 2.97 | 0.687 | 0.615 | 0.767 | 0.63 | 0.98 |
